According to patent publication US20190062438A1 (CSL, published 2019):
Numbering of substitutions follows the chain as printed.

Tests used:
Experiment in all cases: SPR, kinetics, Fab over captured mutant
shCD131 D369A = biological target: T1, shCD131 D369A (human, UniProt P32927 17-438)
T1 construct: C-terminal 6xHis
T1 sequence: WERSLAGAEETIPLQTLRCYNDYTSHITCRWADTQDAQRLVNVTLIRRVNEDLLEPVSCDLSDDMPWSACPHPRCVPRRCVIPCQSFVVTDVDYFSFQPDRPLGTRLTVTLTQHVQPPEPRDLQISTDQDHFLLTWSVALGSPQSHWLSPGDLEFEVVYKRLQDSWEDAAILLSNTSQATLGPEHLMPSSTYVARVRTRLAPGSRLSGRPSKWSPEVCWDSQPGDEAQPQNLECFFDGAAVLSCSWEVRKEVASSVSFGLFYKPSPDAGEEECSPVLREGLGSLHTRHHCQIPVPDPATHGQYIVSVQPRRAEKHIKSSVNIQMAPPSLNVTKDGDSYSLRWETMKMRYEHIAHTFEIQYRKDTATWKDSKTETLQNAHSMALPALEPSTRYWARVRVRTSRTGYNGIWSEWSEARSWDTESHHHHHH
Procedure: (§1) As shβc is a dimer, kinetics assays were performed with shβc captured on the sensor surface, and purified Fab injected as the analyte. Avidity effects were avoided by the use of Fab rather than whole IgG.
(§2) shCD131 was captured on spots 1 and 5 of each flow cell for 2 minutes at a concentration of 0.4 μg/ml. […] For some analysis purified Fab was injected over each flow cell for 3 minutes and dissociation was monitored for a further 10 minutes. Regeneration of the surface was performed after each cycle with a 40 second injection of 25 mM glycine, pH 2.0. The analysis was performed with Fabs at several concentrations between 100 and 0.31 nM, with each concentration analyzed twice and in random order. The analysis was performed at a flow rate of 30 μl/min in HBS-EP buffer (10 mM Hepes, 150 mM NaCl, 3 mM EDTA, 0.005% Tween 20, pH 7.4) at 37° C. Responses from spots 2 and 4 of each flow cell, (in which shβc was not captured, but otherwise treated identically), were subtracted from those of spots 1 and 5 respectively to produce reference subtracted data. Reference subtracted responses from a blank injection comprising buffer alone were subtracted from the resultant sensorgrams to produce double referenced data suitable for kinetic analysis. Double-referenced sensorgrams were fitted using non-linear regression to a model describing 1:1 kinetics, including a term for mass transport limitation. The Rₘₐₓ value was fitted locally to account for slight deviations in the level of sCD131 captured, with association rate (kₐ), dissociation rate (kd) and equilibrium dissociation constant (KD) fitted globally.
(§3) Mapping of the shCD131 epitope was performed by measurement of the affinity of Fabs for various alanine point mutants of shCD131 essentially as described above, with the following exceptions. Each shCD131 mutant was captured for 120 seconds at concentrations between 1 and 5 μg/ml. For kinetic analysis, purified recombinant Fabs were injected for 2 minutes, and dissociation was monitored for a further 2 minutes. […] Fab concentrations ranged from 16 μM to 3.9 nM in two-fold dilutions.

shCD131 V105A = biological target: T2, shCD131 V105A (human, UniProt P32927 17-438)
T2 construct: C-terminal 6xHis
T2 sequence: T1 sequence with V89A, A353D
Procedure: as §1, §2, §3

shCD131 Q339A = biological target: T3, shCD131 Q339A (human, UniProt P32927 17-438)
T3 construct: C-terminal 6xHis
T3 sequence: T1 sequence with Q323A, A353D
Procedure: as §1, §2, §3

shCD131 I424A = biological target: T4, shCD131 I424A (human, UniProt P32927 17-438)
T4 construct: C-terminal 6xHis; also called 1424A
T4 sequence: T1 sequence with A353D, I408A
Procedure: as §1, §2, §3

Kd (shCD131 D369A): 28 nM
Kd (shCD131 V105A): 78 nM
Kd (shCD131 Q339A): 144 nM
Kd (shCD131 I424A): 126 nM
B1: 9A2 Fab (Fab, V domains shown)
VH: EVQLLESGGGLVQPGGSLRLSCAASGFTFSHYHMLWVRQAPGKGLEWVSSIRSSGGFTYYADSVKGRFTISRDNSKNTLYLQMNSLRAEDTAVYYCARFYDSFFDIWGQGTMVTVSS
VL: DIQMTQSPSSVSASVGDRVTITCRASQGISSWLAWYQQKPGKAPKLLIYAASSLQSGVPSRFSGSGSGTDFTLTISSLQPEDFATYYCQQANSFPITFGQGTRLEIKR
notes: also called recombinant Fab of 9A2
